This is an account of results in patent US20020164304A1 (TRANSGENE, published 2002).

For this test, the target named is T1, human α1-antitrypsin (human, UniProt P01009 25-418).
T1 construct: Secreted recombinant human α1AT found in culture supernatant; also called α1AT; human α1AT
The test is described as follows: supernatant incubated with active NE (3, 30, 300 nM; 30 min, 23°), then immunoprecipitation, SDS-PAGE and autoradiography. The procedure:
(B) At various times after infection, the lungs were minced, incubated for 1 hour in methionine-free LHC-8 medium (37°), and then incubated for 24 hours in medium with (³⁵S)-methionine (1 ml medium/150 mg tissue; 500 μCi/ml). The supernatant was then evaluated by immunoprecipitation with a rabbit antibody to human α1AT (Boehringer Mannheim), SDS-polyacrylamide gels, and autoradiography as in FIG. 2E. Trichloroacetic acid-precipitable radioactivity was evaluated by immunoprecipitation (for lanes 10-15, 2×10⁶ cpm; for lanes 16-18, 1×10⁶ cpm). Autoradiogram exposures for lanes 10 to 15 were identical; lanes 16-18 were evaluated at a different time, and the exposures adjusted such that the intensity of the α1AT band without NE was similar to lane 13. The ability of the synthesized human α1AT to inhibit its natural substrate, NE, was evaluated by incubating the supernatant with various dilutions of active NE (30 min, 23°) before immmunoprecipitation.
The de novo expression of the human α1AT protein lasted at least 1 week (lane 15) and the secreted human α1AT was functional, as shown by its ability to form a complex with its natural target, human neutrophil elastase (NE) (lanes 16-18).

T1 sequence (P01009 25-418 limits assumed): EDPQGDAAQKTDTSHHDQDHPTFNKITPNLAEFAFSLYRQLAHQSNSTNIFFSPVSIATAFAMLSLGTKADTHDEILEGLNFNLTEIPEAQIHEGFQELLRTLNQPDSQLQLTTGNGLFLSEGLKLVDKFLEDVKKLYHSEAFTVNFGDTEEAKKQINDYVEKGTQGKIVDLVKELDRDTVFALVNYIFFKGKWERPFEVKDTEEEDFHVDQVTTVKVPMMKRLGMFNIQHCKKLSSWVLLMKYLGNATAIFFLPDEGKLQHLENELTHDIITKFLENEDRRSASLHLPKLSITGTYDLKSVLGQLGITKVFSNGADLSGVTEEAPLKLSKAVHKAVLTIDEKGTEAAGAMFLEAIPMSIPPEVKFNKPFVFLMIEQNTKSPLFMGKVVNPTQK

B1: human neutrophil elastase (enzyme, UniProt P08246 30-247, looked up)
chain: IVGGRRARPHAWPFMVSLQLRGGHFCGATLIAPNFVMSAAHCVANVNVRAVRVVLGAHNLSRREPTRQVFAVQRIFENGYDPVNLLNDIVILQLNGSATINANVQVAQLPAQGRRLGNGVQCLAMGWGLLGRNRGIASVLQELNVTVVTSLCRRSNVCTLVRGRQAGVCFGDSGSPLVCNGLIHGIASFVRGGCASGLYPDAFAPVAQFVNWIDSIIQ
notes: Described as active NE
In the case of B1, the binding result is “binds”.
